Data from US20030236190A1 (published 2003).
Positions of bridges follow the written chain, without caps; N, C: chain ends. No end group written: not given here.

B1: 20E2A-4-G11-IGFR (peptide)
peptide: MNVFVSFYDAIDQLVCQRIGC
modifications: not fully specified (N-terminus, C-terminus, bridges); cysteine pairing not given here
B2: 26L-3-G5-IR (peptide)
peptide: AETSAQVGWQRLWSVWPGDHWSTLDPFYHKLSELLRESGA
modifications: not fully specified (residue 27, N-terminus, C-terminus); printed as AETSAQVGWQRLWSVWPGDHWSTLDP9YHKLSELLRESGA
B3: S415 (peptide)
chain: ESFYDWFERQLGK
modifications: not fully specified (residue 13, C-terminus); also: dimer, two chains joined C-terminus to C-terminus through linker 23

What follows are binders tested against T1, Insulin receptor (IR) prepared according to Bass et al., 1996 (human, UniProt P06213 28-956) (assay: phage ELISA; ratio over background for IR divided by that for IGF-1R).
T1 construct: extracellular domain; also called soluble IR (Bass construct); sIR-Fc; not shown: immunoglobulin heavy chain constant domains of the Bass chimera

IR/IGF-1R ratio comparison | Binder
0.5 ratio | GHYFGSFYDAIDQLVAGMLPG [20E2A-3-A3-IGFR]
0.3 ratio | RCGDEEGWQENRRDDPFYHKLSELFGGC (disulfide 2-28 (inferred); not fully specified (N-terminus, C-terminus)) [B6Hα-3-ES-IR]
0.1 ratio | LSCLAYSRHGIWRPSTDLGLGRSVGEGSVSTRWRGYDWFE [40F-4-D1-IGFR]
0.5 ratio | CSMAAVAEAGDDDDPFYHKLSELCQGS [B6Hα-3-F1-IR]
0.4 ratio | B1
0.3 ratio | SSETAKMVTGTRDDPFYHKLSELVQGS [B6Hα-2-D8-IR]
0.7 ratio | B2
0.1 ratio | VRGFQGGTVWPGYEWLRNAA (not fully specified (N-terminus, C-terminus)) [R20β-E8-IR]
0.3 ratio | GCITAENGAGDPFYHKLSELGGCS (disulfide 2-23 (inferred); not fully specified (N-terminus, C-terminus)) [B6Hα-1-23-IR]
0.5 ratio | CGAKMTGTPNDPFYHKLSELLQRG [B6Hα-3-E6-IR]

Each binder was assayed against T2, recombinant human IGF-1R (rhIGF-1R) (human, UniProt P08069 31-935) (assay: TR-FRET competition with b-20E2 for rhIGF-1R).
T2 construct: extracellular domain; Coated on plates in the TRF assay and europium-labelled (LANCE) in the TR-FRET assays; also called rhIGE-1R; Eu3+-rhIGF-1R

IC50 | Binder
0.01 µM | CWARPCGDAANFYDWFVQQAS (also called C1 (D112)) [C1]

Each binder was assayed against T3, Soluble IGF-1R (UniProt P08069 31-935, limits assumed) (assay: not given).
T3 construct: extracellular domain; Bought reagent; also called sIGF-1R; insulin-like growth factor receptor

ratio over background, IGF-1R | Binder
3 ratio over background | GHYFGSFYDAIDQLVAGMLPG [20E2A-3-A3-IGFR]
2.9 ratio over background | RCGDEEGWQENRRDDPFYHKLSELFGGC (disulfide 2-28 (inferred); not fully specified (N-terminus, C-terminus)) [B6Hα-3-ES-IR]
4.6 ratio over background | LSCLAYSRHGIWRPSTDLGLGRSVGEGSVSTRWRGYDWFE [40F-4-D1-IGFR]
2.4 ratio over background | CSMAAVAEAGDDDDPFYHKLSELCQGS [B6Hα-3-F1-IR]
3.3 ratio over background | B1
3 ratio over background | SSETAKMVTGTRDDPFYHKLSELVQGS [B6Hα-2-D8-IR]
34.9 ratio over background | VRGFQGGTVWPGYEWLRNAA (not fully specified (N-terminus, C-terminus)) [R20β-E8-IR]
3.2 ratio over background | GCITAENGAGDPFYHKLSELGGCS (disulfide 2-23 (inferred); not fully specified (N-terminus, C-terminus)) [B6Hα-1-23-IR]
2.3 ratio over background | CGAKMTGTPNDPFYHKLSELLQRG [B6Hα-3-E6-IR]

The binders below were run against T3, Soluble IGF-1R (assay: phage ELISA; ratio over background for IGF-1R divided by that for IR).

IGF-1R/IR ratio comparison | Binder
1.9 ratio | GHYFGSFYDAIDQLVAGMLPG [20E2A-3-A3-IGFR]
2.9 ratio | RCGDEEGWQENRRDDPFYHKLSELFGGC (disulfide 2-28 (inferred); not fully specified (N-terminus, C-terminus)) [B6Hα-3-ES-IR]
13.1 ratio | LSCLAYSRHGIWRPSTDLGLGRSVGEGSVSTRWRGYDWFE [40F-4-D1-IGFR]
1.8 ratio | CSMAAVAEAGDDDDPFYHKLSELCQGS [B6Hα-3-F1-IR]
2.6 ratio | B1
3 ratio | SSETAKMVTGTRDDPFYHKLSELVQGS [B6Hα-2-D8-IR]
9.7 ratio | VRGFQGGTVWPGYEWLRNAA (not fully specified (N-terminus, C-terminus)) [R20β-E8-IR]
2.9 ratio | GCITAENGAGDPFYHKLSELGGCS (disulfide 2-23 (inferred); not fully specified (N-terminus, C-terminus)) [B6Hα-1-23-IR]
1.9 ratio | CGAKMTGTPNDPFYHKLSELLQRG [B6Hα-3-E6-IR]

Each binder was assayed against T2, recombinant human IGF-1R (rhIGF-1R) (assay: ratio of the IC50 at rhIGF-1R (TR-FRET) to the IC50 at sIR-Fc (FP); higher values indicate higher affinity for IR than IGF-1R).

Binding Ratio IGF-1R/IR | Binder
0.19 | CWARPCGDAANFYDWFVQQAS (also called C1 (D112)) [C1]

These binders were tested against T2, recombinant human IGF-1R (rhIGF-1R) (assay: TR-FRET competition with b-20E2 for Eu3+-rhIGF-1R).

IC50 | Binder
0.00088 µM | CWARPCGDAANFYDWFVQQAS (also called C1 (D112)) [C1]
11.3 µM | WLEQERAWIWCEIQGSGCRA (not fully specified (bridges); cysteine pairing not given here) [D8B12]
6.29 µM | LDALDRLMRYFEERPSL [S173]
31 µM | SAKNFYDWFVKK [A6]

What follows are binders tested against T1, Insulin receptor (IR) prepared … (assay: not given).

ratio over background, IR | Binder
1.5 ratio over background | GHYFGSFYDAIDQLVAGMLPG [20E2A-3-A3-IGFR]
1 ratio over background | RCGDEEGWQENRRDDPFYHKLSELFGGC (disulfide 2-28 (inferred); not fully specified (N-terminus, C-terminus)) [B6Hα-3-ES-IR]
0.3 ratio over background | LSCLAYSRHGIWRPSTDLGLGRSVGEGSVSTRWRGYDWFE [40F-4-D1-IGFR]
1.3 ratio over background | CSMAAVAEAGDDDDPFYHKLSELCQGS [B6Hα-3-F1-IR]
1.3 ratio over background | B1
1 ratio over background | SSETAKMVTGTRDDPFYHKLSELVQGS [B6Hα-2-D8-IR]
1.4 ratio over background | B2
3.6 ratio over background | VRGFQGGTVWPGYEWLRNAA (not fully specified (N-terminus, C-terminus)) [R20β-E8-IR]
1.1 ratio over background | GCITAENGAGDPFYHKLSELGGCS (disulfide 2-23 (inferred); not fully specified (N-terminus, C-terminus)) [B6Hα-1-23-IR]
1.2 ratio over background | CGAKMTGTPNDPFYHKLSELLQRG [B6Hα-3-E6-IR]

These binders were tested against T4, Human insulin receptor (HIR), purified from transfected cells after solubilization with Triton X-100 (human, UniProt P06213 28-1382, limits assumed) (assay: competition with 125I-insulin for solubilised HIR, PEG precipitation; Kd calculated from the competition curve).
T4 construct: Detergent-solubilised receptor

Kd | Binder
0.1 µM | B3
